Laboratory results: article PMC13247719
Substitutions are numbered along the chain they refer to. Like-named read-outs stand apart in the source and are kept apart here.

Tests used:
Test in all cases: SPR
[1] = target: T1, LIN28A (mouse, UniProt Q8K3Y3 1-209)
T1 sequence: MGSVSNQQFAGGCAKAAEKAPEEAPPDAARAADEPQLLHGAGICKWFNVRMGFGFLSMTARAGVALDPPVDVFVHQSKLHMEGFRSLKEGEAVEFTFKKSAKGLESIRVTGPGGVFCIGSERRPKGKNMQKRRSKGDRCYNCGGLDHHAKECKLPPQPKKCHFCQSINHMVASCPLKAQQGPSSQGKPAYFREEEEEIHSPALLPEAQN

[2] = target: T2, LIN28A H162A (mouse, UniProt Q8K3Y3 1-209, H162A)
T2 sequence: T1 sequence with H162A

[3] = target: T3, LIN28A Y140A (mouse, UniProt Q8K3Y3 1-209, Y140A)
T3 sequence: T1 sequence with Y140A

[4] = target: T4, LIN28A H148A (mouse, UniProt Q8K3Y3 1-209, H148A)
T4 sequence: T1 sequence with H148A

[5] = target: T5, LIN28A CSD (mouse, UniProt Q8K3Y3 16-136)
T5 sequence: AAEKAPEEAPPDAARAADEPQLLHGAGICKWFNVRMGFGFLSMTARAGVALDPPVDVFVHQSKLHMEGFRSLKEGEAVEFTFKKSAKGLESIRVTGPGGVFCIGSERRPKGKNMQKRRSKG

[6] = target: T6, LIN28A I167A (mouse, UniProt Q8K3Y3 1-209, I167A)
T6 sequence: T1 sequence with I167A

[7] = target: T1, LIN28A; remark: listed apart in the source

## GGGGUAGUGAUUUUACCCUGUUUAGGAGAU (structured_RNA) [preE-let-7f-1 biotin]
[1]
  Kd: 92 nM
[2]
  Kd: 382 nM
[3]
  Kd: 410 nM
[4]
  Kd: 276 nM
[5]
  Kd: 808 nM
[6]
  Kd: 99.5 nM

## GGGGUAGUGAUUUUACCCUGUUUAUGAGAU (structured_RNA) [preE-let-7f-1 UGAG]
[7]
  Kd: 387 nM
